94 variants from the supplement of paper PMC10567573 can be followed below.

B1: KRT18 (parent)
chain: PQVRDWSHYFKIIEDLRAQIFANT
B2: STEAP1 (parent)
chain: LWKMKPRRNLEEDDYLHKDTGETS
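Note: lentivirally expressed fusions sorted by FACS into six bins by GFP to DsRed ratio, PSI derived from sequencing read proportions per bin multiplied by bin number.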

Variants of B1 are the subject of the first series. The series can be described thus: protein stability index of a GFP-peptide fusion (GPS, HEK-293T) (PSI 1-6); higher = more stable. The following applies: c terminus: a fixed tail appended.
Regarding PQVRDWSHYFKIIEDLRAQIFWNT [A22W], the protein stability index was determined as 1.41.

In the case of PQVRDWSHYFKIIEDLRAQIFYNT [A22Y], the protein stability index came out at 1.64.

Take PQVRDWSHYFKIIEDLRAQIFQNT [A22Q]: the protein stability index is 2.72.

PQVRDWSHYFKIIEDLRAQIFSNT [A22S]: the protein stability index worked out at 2.17.

Turning to PQVRDWSHYFKIIEDLRAQIFTNT [A22T], the protein stability index stood at 2.14.

Take PQVRDWSHYFKIIEDLRAQIFRNT [A22R]: the protein stability index came to 1.99.

On to PQVRDWSHYFKIIEDLRAQIFVNT [A22V], for which the protein stability index amounted to 2.01.

As for PQVRDWSHYFKIIEDLRAQIFANI [T24I], the protein stability index is 2.6.

As for PQVRDWSHYFKIIEDLRAQIFANY [T24Y], the protein stability index came to 1.72.

Take PQVRDWSHYFKIIEDLRAQIFANH [T24H]: the protein stability index turned out to be 2.43.

PQVRDWSHYFKIIEDLRAQIFANF [T24F]: the protein stability index came to 2.34.

PQVRDWSHYFKIIEDLRAQIFANP [T24P]: the protein stability index amounted to 2.84.

For PQVRDWSHYFKIIEDLRAQIFANC [T24C], the protein stability index was determined as 2.02.

Turning to PQVRDWSHYFKIIEDLRAQIFANL [T24L], the protein stability index was found to be 2.31.

For the variant PQVRDWSHYFKIIEDLRAQIFANW [T24W], the protein stability index is 2.27.

Regarding PQVRDWSHYFKIIEDLRAQIFANE [T24E], the protein stability index was found to be 3.47.

Consider PQVRDWSHYFKIIEDLRAQIFANM [T24M], for which the protein stability index was found to be 2.81.

Consider PQVRDWSHYFKIIEDLRAQIFANR [T24R], for which the protein stability index was 2.23.

Regarding PQVRDWSHYFKIIEDLRAQIFANV [T24V], the protein stability index is 2.04.

Turning to PQVRDWSHYFKIIEDLRAQIFANN [T24N], the protein stability index was determined as 2.74.

On to PQVRDWSHYFKIIEDLRAQIFANA [T24A], for which the protein stability index stood at 1.9.

Consider PQVRDWSHYFKIIEDLRAQIFANS [T24S], for which the protein stability index came out at 2.31.

As for PQVRDWSHYFKIIEDLRAQIFAND [T24D], the protein stability index was found to be 2.75.

As to PQVRDWSHYFKIIEDLRAQIFANK [T24K], the protein stability index stood at 2.53.

For the variant PQVRDWSHYFKIIEDLRAQIFANG [T24G], the protein stability index was 2.5.

With PQVRDWSHYFKIIEDLRAQIFANQ [T24Q], the protein stability index is 2.47.

Turning to PQVRDWSHYFKIIEDLRAQIFAAT [N23A], the protein stability index was determined as 1.86.

Take PQVRDWSHYFKIIEDLRAQIFAET [N23E]: the protein stability index amounted to 2.8.

Take PQVRDWSHYFKIIEDLRAQIFAST [N23S]: the protein stability index came to 2.33.

PQVRDWSHYFKIIEDLRAQIFAIT [N23I]: the protein stability index is 1.93.

Take PQVRDWSHYFKIIEDLRAQIFAWT [N23W]: the protein stability index turned out to be 1.95.

Take PQVRDWSHYFKIIEDLRAQIFAVT [N23V]: the protein stability index was 2.08.

With PQVRDWSHYFKIIEDLRAQIFATT [N23T], the protein stability index came out at 1.56.

Take PQVRDWSHYFKIIEDLRAQIFACT [N23C]: the protein stability index turned out to be 2.36.

PQVRDWSHYFKIIEDLRAQIFALT [N23L]: the protein stability index came out at 2.53.

In the case of PQVRDWSHYFKIIEDLRAQIFART [N23R], the protein stability index is 2.57.

As for PQVRDWSHYFKIIEDLRAQIFAKT [N23K], the protein stability index was determined as 2.06.

Take PQVRDWSHYFKIIEDLRAQIFAPT [N23P]: the protein stability index stood at 1.91.

Regarding PQVRDWSHYFKIIEDLRAQIFAFT [N23F], the protein stability index amounted to 1.22.

PQVRDWSHYFKIIEDLRAQIFADT [N23D]: the protein stability index was 2.43.

As for PQVRDWSHYFKIIEDLRAQIFAHT [N23H], the protein stability index was determined as 2.35.

Consider PQVRDWSHYFKIIEDLRAQIFAMT [N23M], for which the protein stability index worked out at 2.1.

With PQVRDWSHYFKIIEDLRAQIFAYT [N23Y], the protein stability index came to 1.56.

In the case of PQVRDWSHYFKIIEDLRAQIFAQT [N23Q], the protein stability index is 1.86.

Variants of B2 are the subject of a further series. Described as above. The following applies: c terminus: a fixed tail appended.
For LWKMKPMRNLEEDDYLHKDTGETS [R7M], the protein stability index was determined as 4.51.

For LWKMKPIRNLEEDDYLHKDTGETS [R7I], the protein stability index was determined as 4.26.

In the case of LWKMKPLRNLEEDDYLHKDTGETS [R7L], the protein stability index worked out at 4.4.

As for LWKMKPSRNLEEDDYLHKDTGETS [R7S], the protein stability index came out at 4.58.

Take LWKMKPGRNLEEDDYLHKDTGETS [R7G]: the protein stability index is 4.42.

In the case of LWKMKPARNLEEDDYLHKDTGETS [R7A], the protein stability index stood at 4.83.

Consider LWKMKPHRNLEEDDYLHKDTGETS [R7H], for which the protein stability index came to 4.69.

With LWKMKPCRNLEEDDYLHKDTGETS [R7C], the protein stability index came to 4.26.

Regarding LWKMKPVRNLEEDDYLHKDTGETS [R7V], the protein stability index was 4.14.

For LWKMKPQRNLEEDDYLHKDTGETS [R7Q], the protein stability index was 4.62.

Consider LWKMKPDRNLEEDDYLHKDTGETS [R7D], for which the protein stability index stood at 5.25.

LWKMKPERNLEEDDYLHKDTGETS [R7E]: the protein stability index was found to be 4.47.

With LWKMKPYRNLEEDDYLHKDTGETS [R7Y], the protein stability index is 3.94.

As to LWKMKPKRNLEEDDYLHKDTGETS [R7K], the protein stability index is 4.69.

On to LWKMKPNRNLEEDDYLHKDTGETS [R7N], for which the protein stability index was found to be 4.71.

Take LWKMKPFRNLEEDDYLHKDTGETS [R7F]: the protein stability index came to 3.55.

In the case of LWKMKPPRNLEEDDYLHKDTGETS [R7P], the protein stability index was 4.62.

In the case of LWKMKPTRNLEEDDYLHKDTGETS [R7T], the protein stability index stood at 4.85.

With LWKMKPWRNLEEDDYLHKDTGETS [R7W], the protein stability index stood at 4.07.

FWKMKPRRNLEEDDYLHKDTGETS [L1F]: the protein stability index stood at 4.31.

Turning to CWKMKPRRNLEEDDYLHKDTGETS [L1C], the protein stability index came to 4.43.

On to YWKMKPRRNLEEDDYLHKDTGETS [L1Y], for which the protein stability index came out at 4.26.

For QWKMKPRRNLEEDDYLHKDTGETS [L1Q], the protein stability index amounted to 5.18.

In the case of MWKMKPRRNLEEDDYLHKDTGETS [L1M], the protein stability index came to 4.59.

As to WWKMKPRRNLEEDDYLHKDTGETS [L1W], the protein stability index came to 4.18.

As to SWKMKPRRNLEEDDYLHKDTGETS [L1S], the protein stability index turned out to be 4.78.

For PWKMKPRRNLEEDDYLHKDTGETS [L1P], the protein stability index turned out to be 5.08.

As to KWKMKPRRNLEEDDYLHKDTGETS [L1K], the protein stability index came to 4.57.

Turning to TWKMKPRRNLEEDDYLHKDTGETS [L1T], the protein stability index worked out at 5.

Regarding AWKMKPRRNLEEDDYLHKDTGETS [L1A], the protein stability index is 5.06.

On to NWKMKPRRNLEEDDYLHKDTGETS [L1N], for which the protein stability index worked out at 4.84.

On to VWKMKPRRNLEEDDYLHKDTGETS [L1V], for which the protein stability index turned out to be 4.69.

As to RWKMKPRRNLEEDDYLHKDTGETS [L1R], the protein stability index was found to be 4.8.

EWKMKPRRNLEEDDYLHKDTGETS [L1E]: the protein stability index is 5.32.

Regarding GWKMKPRRNLEEDDYLHKDTGETS [L1G], the protein stability index was 4.75.

Regarding DWKMKPRRNLEEDDYLHKDTGETS [L1D], the protein stability index worked out at 5.23.

In the case of IWKMKPRRNLEEDDYLHKDTGETS [L1I], the protein stability index is 3.97.

On to HWKMKPRRNLEEDDYLHKDTGETS [L1H], for which the protein stability index was determined as 4.92.

In the case of LWPMKPRRNLEEDDYLHKDTGETS [K3P], the protein stability index is 4.72.

Consider LWGMKPRRNLEEDDYLHKDTGETS [K3G], for which the protein stability index came to 4.22.

As to LWCMKPRRNLEEDDYLHKDTGETS [K3C], the protein stability index worked out at 3.49.

As to LWMMKPRRNLEEDDYLHKDTGETS [K3M], the protein stability index amounted to 4.11.

In the case of LWRMKPRRNLEEDDYLHKDTGETS [K3R], the protein stability index amounted to 4.28.

Turning to LWFMKPRRNLEEDDYLHKDTGETS [K3F], the protein stability index was 3.31.

Regarding LWEMKPRRNLEEDDYLHKDTGETS [K3E], the protein stability index stood at 5.19.

With LWSMKPRRNLEEDDYLHKDTGETS [K3S], the protein stability index came out at 4.51.

LWYMKPRRNLEEDDYLHKDTGETS [K3Y]: the protein stability index turned out to be 3.81.

On to LWLMKPRRNLEEDDYLHKDTGETS [K3L], for which the protein stability index came to 3.81.

Regarding LWVMKPRRNLEEDDYLHKDTGETS [K3V], the protein stability index is 3.67.

LWAMKPRRNLEEDDYLHKDTGETS [K3A]: the protein stability index was found to be 4.19.
